Source: the DeepSol protein solubility set

Assay: soluble on expression in E. coli; label from the status in PepcDB or PDB records

| Sequence | soluble on expression in E. coli |
| --- | --- |
| MEFKLHNGSGGLCCKSCSRQDKKLNTYDWLADIPGNAEESDMVEVQFKNTRKGYYRNSNKIKLEKGDIVAVEATPGHDIGTVTLTGRLVPLQMKKANFKQDAEIKRIYRKAKAVDMEKYEEAKAKEHTTMIRARQIAASLNLDMKIGDVEYQGDGNKAIFYYIADERVDFRQLIKVLAEAFRVRIEMKQIGARQEAGRIGGIGPCGRELCCATWMTSFVSVSTSAARYQDISLNPQKLAGQCAKLKCCLNYEVDCYVEAQKRLPSREIELETKDGTYYFFKADILSNQISYSTDKNFAANLVTISGKRAFEVIGLNKRGIKPDSLLEAERKPEPKKPVDLLEQESLTRFDRDRRRNAKDGNGKDEGGNGNRKKKKKNNNHPQQATNGETQSSQPTPINAQENNGSQPVQNQQRTRGERPKNNNRNNNQPRKNNESREPRSNENRETRKNEPREQRPPREPRGPRNNEQPKRIEKAQENEKPAQELEHHHHHH | not soluble |
| MSLLKCSICINDERITRILIVDGRPICKECKVFLEHPPDKEKIKKELEEILSKVDKAIVAYSGGKDSIVALYLAKEKYSIDVEAVMVDHGFIAPQAIKNAKNVAKYLDVPLTIIKRDYSDIFREALLKAKSPCRKCSRRTMEILRKYALKKGYRYMITGHELPFGHHPYRLMSGGIIQVRILSLMSEEERMKILKKLPVELPELPGYTSNCLILGPALQRFWERHGYSFEHRRIAALVRYGLLNKEKALKKVQKPEVPQWQWELVKKKLKLEDGFEGHHHHHH | soluble |
| PPHVEYMRRLELADYEPASDSGHIRYYPKGRLVKTLLEQFITRKCIDYGAMEVETPIMYDRNHPTLRRYLERFPARQYIIKGDKREFFLRFAACFGQFLMLSSSTITYRNLPLKIYELTRYSFRKEQRGELVGLRRLRAFTMPDMHTVAKDMEQAKEEFFNQYRLSVEVLREIGLEPEDYEVAVRITKDFYEENREFVHSLVDILKKPILIEMWDHRFFYFVLKFEFNFVDALDKASALSTVQIDVENAERYGITFVDSDGKEKHPYILHCSVSGAVERVMYALLEKAK | not soluble |
| GMYNPVGVAAIGLGRWAYVMADAYTKSEKLKLVTCYSRTEDKREKFGKRYNCAGDATMEALLAREDVEMVIITVPNDKHAEVIEQCARSGKHIYVEKPISVSLDHAQRIDQVIKETGVKFLCGHSSRRLGALRKMKEMIDTKEIGEVSSIEAVFSNERGLELKKGNWRGEPATAPGGPLTQLGVHQIDNLQFLLGPVARVFNFGKPMYTEVENITVNQTLLEFEDGKQAYLGTNWACPGVFSINVYGTKANLFYQLDFSWWSNSDVTDEHSTLIKREFASMSDDPDNRILRDVKVDFESVDHLRVEVEEVADVIRNGGETEIGAEASLRNLAVVLAAVKSVHEKRPVEIAEIIG | soluble |
| SDEDGLPLMGSGIDLTKVPAIQQKRTVAFLNQFVVHTVQFLNRFSAVCEEKLADLSLRIQQIETTLNILDAKLSSIPGLEDVTVEVSPLNVTAVTNGSHSETTSEQTQQNSTQDSGAQESEAPSENVLTVAKDPRYARYRKMVQVGVPVMAIRDKMISEGLDPELLEKPDAPVPNGESKRAVEESSDSDSSFSD | soluble |
| MGSDKIHHHHHHMIIELNKSNSENLTKTELEIIKFINENESILPELSIVEIAHETYSSPATVSRAIRKCGLNGFNELRYRLTVKDENDDIQNMGDIINKSFIEAQRVIEQISLTTLINIIKTINKSSKIYILARGLTEYVAKEFSLKLQLLDFNVVFINDPNIMKIKSKSIKKDELIIIFSLNGNTIELVESAQNANLVGAKVITCCCSESAKLIKYSDLYIVGYKHEHISISEYEVSSRLPLYIISRIIIDYMVRYNNSEN | not soluble |
| MTLLRGTVRTKTSCQLVSAIGTQNCTVWEGYEVSEITPGNSNTSYITWKRSVPNTNLSQPITSCPASTVKFPTCKVGWKLFPRYNTYWCLTLGINRRERDGYLLQFDQSFSYVACRWDGSEFIDGRISGLESNEERAYATDRAYQIMKQNMRETLFVFPSNVRLGWGVWVDGVKDVAGQVKYSDTTLNLKLGYKWDIGQPNWVSRKQACVMLMVPVNQSSRSNGSLRTAEYLRSI | not soluble |
| MGSDKIHHHHHHMGMILNGYLEVINHLQQLPLALILIFNLKIMKQIIYVFLLTVLSSCDSYLSKVPSPSTSAPINNVEQLVAIYDNATAFINETNPFACYSNDDADLTAELYKADPSAFAISSTVFYNILHTAGIASQASDGLWNGEYSNIFKANTIINNVDKVTGDESEKIKLKCNAHFLRAYSYFVLAQYYCLPYCEANKNALGLPKRLNTDFEESIARVSLDEIYQLILDDLEIAAVTPDKSVNPNFPWRICQATVNALLSRVYLTMGNYKEAQATAEKALEGAPELLDFNELGYAPVESYPEMEGLPAQDVYNCETHKWTTIKYLYWKEFLFPRFTYARSQWIIPSDDLVSLYDQQNDRRFKLFFVEHGNRRMGVPYEAYRYNQFYDGRYIISGLTTAEMLLNKAEAQIRQGMWQEGLKTLDVLREKRYEAGTYISLSAGNQSEALSIVLAERRREMPFSMRIPDIKRYGVNEILEDDVTVVKNFFEISMSEVFIDKPKTYTIPSNSLLWAMPINDVEIGSSNGAIQQNRYE | not soluble |
| ESIYIQSPYFIPDQAFLDSIKIAALGGVDVNIMVPNKRDHPFVYWATLKNVASLLEAGVNVYHYDNGFLHSKTLVIDDEVASVGTANMDNRSFTLNFEVNAFIYDEGVARSLKQAFINDMKLSNKLTSEEYAKR | not soluble |
| MKFINIVGTTASGKTTFARQLALKLNLTHIEMDDLFWLDGWQETPDDEFFLKLKNKMDIAKDGWVLDGNYSRTLHLKLDKLDTMIWLDYSFTLNFYRSVKRAISRIITKEPLWENSNNYESFKQSFLSKNSIILWMINHYAKNRKKYLNMMHDPQYRHIQFIRLTSPKQAKVFLDSL | not soluble |
| MVVAKPTAAVSIEDLIKKHSDVDPFLVKKWERIFSLFFDRNASHQVDWGDFYLVVKKVRDIYGAESVQTGFAKKSLAALWEGLCSIADADKDQLISIDEWIGLLKKTDAKTEPKWFKDYQNFMFKLFDVSCDGVMDLAEYTDGMSTYGFDQSECDAAFHKFSVDKKGQYVPQMKPETWNTYFHQLFYSTNKSDVGNHLFGIIDF | not soluble |
| MMTVAAEIRGSNPEKLLAPVLSAFWDEDESWTLDVYRRHEGYEGLRKALAMAPDDLIAYVKESGLRGRGGAGFPTGMKWQFIPQGDGKPHYLVVNADESEPGTCKDIPLLFANPHSLIEGIVIACYAIRSSHAFIYLRGEVVPVLRRLHEAVREAYAAGFLGENILGSGLDLTLTVHAGAGAYICGEETALLDSLEGRRGQPRLRPPFPAVAGLYACPTVVNNVESIASVPAILNKGKDWFRSMGSEKSPGFTLYSLSGHVAGPGQYEAPLGITLRQLLDMSGGMRPGHRLKFWTPGGSSTPMFTDEHLDVPLDYEGVGAAGSMLGTKALQCFDETTCVVRAVTRWTEFYAHESCGKCTPCREGTYWLVQLLRDIEAGKGQMSDLDKLNDIADNINGKSFCALGDGAASPIFSSLKYFREEYEEHITGRGCPFDPAKSTAWADRTEVKALEHHHHHH | not soluble |
| VTKIVSHRGANRFAPENTFAAADLALQQGADYIELDVRESADGVLYVIHDETLDRTTNGTGPVGHMLSSEIDTLDAGGWFDDRFKGAIVPRLDAYLEHLRGRAGVYIELKYCDPAKVAALVRHLGMVRDTFYFSFSEEMRQGLQSIAPEFRRMMTLDIAKSPSLVGAVHHASIIEITPAQMRRPGIIEASRKAGLEIMVYYGGDDMAVHREIATSDVDYINLDRPDLFAAVRSGMAELLLASNSSSTC | soluble |
| MSSQSNTGNSIEAPQLPIPGQTNGSANVTVDGAGVNVGIQNGSQGQKTGMDLYFDQALNYMGEHPVITGFGAFLTLYFTAGAYKSISKGLNGGKSTTAFLKGGFDPKMNSKEALQILNLTENTLTKKKLKEVHRKIMLANHPDKGGSPFLATKINEAKDFLEKRGISK | soluble |
| MAVPPAYSDLGKSAKDIFSKGYGFGIVKLDLKTKSQNGVEFNTSGSTNTDTGKAAGSLETKYKLKDLGLSFNQKWNTDNMLTTEVSVEDQLAEGLKVALDTSFVPNTGKKSGKLKTSYKREFVNVSCDLDFEGPVVHSAAVLGYEGWLLGYLVAFDTAKSKLVQNNFALGYKTGDFQLHTNVNDGAEFGGSVYQKVSDQLETAVTLAWTAGSNNTRFGVAAKYQLDKDASLSAKVNNASLIGIGYTQSLRPGVKLTLSALVDGKNFNTGGHKVGLGFELEA | not soluble |
| MQDLKVISKHYAKALKNHTKSDLALLEEIVVGLKNATEAIRQHKLNQVLAHVSLKVKKEVVFEILEKITSIKACSVLKPVMEVVLKNNRLDMLELITEELSFDSKRTLEATLLVPEKLENNELEAVQQKLQARFNAPVEITQDTWSKKGVSLSVSSLDLEIGFSKEDILKKIEKQVIQSI | not soluble |
| MGSDKIHHHHHHMACVRDKPVSGPPTSLSAPHLRISLAFRGGLCPYSRARPEKDYAFKGNFVLRDLIANGQSMRTISLPRGRQRLHAMPTSTGYEVREDEIYDWDGRKRGQTPFTVLQHTISGTGRLRYENRNYRLQENDTLLVLVPHNHRYWLASDERWEYFWISMNGEEALRIHKSILSISGPVFRLKPATIDHLADCSLRLINGAASAGAASAIAYEAAMALYDDVFGSHAFAEKLSAMQPVIDHINANLDRPLPVADLVQISGLSRAHFSRCFAESEGLPPAEFVLQQRLQRAAKLLTKADFLPVKEVAILCGFEDANYFSKVFRRLYGTTPSQFRTTGMYANLRTPARRGVRVSDDET | not soluble |
| MGSDKIHHHHHHMRIIETIEEMKKFSEEMREKKKTIGFVPTMGYLHEGHLSLVRRARAENDVVVVSIFVNPTQFGPNEDYERYPRDFERDRKLLEKENVDCIFHPSVEEMYPPDFSTYVEETKLSKHLCGRSRPGHFRGVCTVVTKLFNIVKPHRAYFGQKDAQQFRVLRRMVRDLNMDVEMIECPIVREPDGLAMSSRNVYLSPEERQQALSLYQSLKIAENLYLNGERDAEKIKEEMIKHLSRFDKVKIDYVEIVDEETLEPVEKIDRKVIVAVAAWVGNARLIDNTILG | not soluble |
| MADTSCKLKPLCFRFVSTLKSPIAVITVTYSPGKYLASFLDSLPGATSRDTHVVMADNGSVDGVPEQAAASRSNVEFLSTGGNLGYGTAINIAARSLRARREAGEIDGEFFLVSNPDVVFDEDSIDQLLECAKRHPEAGAVGPLIREADGSAYPSARAVPTLANGIGHALLGAVWKSNPWSAAYRDDEDMDTERTAGWLSGSCLLLRWDAFDRVGGFDERYFMYMEDVDLGDRLVRAGFTNVFCPSAQIIHAKGHVAGKNPENMLPAHHESAYRFQADRLAKPWQAPIRLALRIGLKLRAGVAVGVSKMRTKASLEHHHHHH | not soluble |
| MGSDKIHHHHHHVKSELIWSKALETSRKAIDCAAVIPLETYKYKSIKKCFDFELRFLKRTFPKNLIDYGPKANPFIPWDRRLEVQAVNDNYTIILNKYPVQLGHLLLISNYWKPQNSWLSIDDFEAIAKVDNDTTGLWFFNSSKDAGASQPHRHFQLLRRDKYENICPRYEWFCSLLNNSEGFNSDIKQCISIKPRKSKLDIDAHDLFNSYKSMIIEMDLGNINNDDKPLKPYNLLITEKWISLIVRSKDRAHGFGINALGFAGYFLGTRRSDIDMLIKFGPESILKDVI | not soluble |
| VGAIMLDGKATRDEIFGDLKQRVAALDAAGRTPGLGTILVGDDPGSQAYVRGKHADCAKVGITSIRRDLPADISTATLNETIDELNANPDCTGYIVQLPLPKHLDENAALERVDPAKDADGLHPTNLGRLVLGTPAPLPCTPRGIVHLLRRYDISIAGAHVVVIGRGVTVGRPLGLLLTRRSENATVTLCHTGTRDLPALTRQADIVVAAVGVAHLLTADMVRPGAAVIDVGVSRTDDGLVGDVHPDVWELAGHVSPNPGGVGPLTRAFLLTNVVELAERR | soluble |
